Tests used:
[1] = biological target: FGFR3 (Homo sapiens, UniProt P22607); assay: Affinity and Koff to FGFR3 measured by BIAcore; type: binding
[2] = test system: FDCP-FGFR3^S249C cells; assay: FDCP-FGFR3^S249C xenograft tumor model in nude mice; type: in vivo; conditions: PRO-001 Fab I.P.
Experimental: FIG. 8B is a graph showing the effect of PRO-001 on an FGFR3-driven xenograft tumor model. Nude mice (3 in each group), were injected S.C. at 2 locations, one on each flank (a—right flank, b—left flank), with 2×10^6 FDCP-FGFR3^S249C cells each. A week later, mice were randomized to receive PRO-001 by I.P. injection according to the schedule described in Table I or PBS as control. Tumor volume was estimated from measurements in 3 dimensions at 22 or 29 days post cell injection.
FDCP-FGFP3^S249C cells were washed 3 times in PBS then resuspended at 2×10^6 cells/200 μl PBS. The cells were injected subcutaneously (S.C.) to CD1 nude adult females (Harlan, Laboratories, Israel) with a 25 G needle at one or both mouse flanks. Treatment was initiated one week post cell inoculation at which time mice were randomized to receive PRO-001 or an equal volume of PBS alone. Dosing was preformed twice weekly by intraperitoneal (I.P.) injection for 3 weeks. Mice were followed every 2-4 days and developing tumors were measured at 3 dimensions using a caliper. Tumor volume was estimated by multiplying these 3 values.
Nude mice were injected subcutaneously at 2 locations; one on each flank, with 2×10^6 FDCP-FGFR3^S249C cells each. One week post cell injection, mice were treated with PRO-001 Fab. […]

[3] = biological target: T1, WT FGFR3 (Homo sapiens, UniProt P22607); assay: Ligand-stimulated receptor phosphorylation in RCJ-FGFR3 cells (immunoprecipitation, Western blot); type: cell-based
T1 construct: expressed in transfected cells; host or cells: B9 cells
T1 sequence (P22607 23-806): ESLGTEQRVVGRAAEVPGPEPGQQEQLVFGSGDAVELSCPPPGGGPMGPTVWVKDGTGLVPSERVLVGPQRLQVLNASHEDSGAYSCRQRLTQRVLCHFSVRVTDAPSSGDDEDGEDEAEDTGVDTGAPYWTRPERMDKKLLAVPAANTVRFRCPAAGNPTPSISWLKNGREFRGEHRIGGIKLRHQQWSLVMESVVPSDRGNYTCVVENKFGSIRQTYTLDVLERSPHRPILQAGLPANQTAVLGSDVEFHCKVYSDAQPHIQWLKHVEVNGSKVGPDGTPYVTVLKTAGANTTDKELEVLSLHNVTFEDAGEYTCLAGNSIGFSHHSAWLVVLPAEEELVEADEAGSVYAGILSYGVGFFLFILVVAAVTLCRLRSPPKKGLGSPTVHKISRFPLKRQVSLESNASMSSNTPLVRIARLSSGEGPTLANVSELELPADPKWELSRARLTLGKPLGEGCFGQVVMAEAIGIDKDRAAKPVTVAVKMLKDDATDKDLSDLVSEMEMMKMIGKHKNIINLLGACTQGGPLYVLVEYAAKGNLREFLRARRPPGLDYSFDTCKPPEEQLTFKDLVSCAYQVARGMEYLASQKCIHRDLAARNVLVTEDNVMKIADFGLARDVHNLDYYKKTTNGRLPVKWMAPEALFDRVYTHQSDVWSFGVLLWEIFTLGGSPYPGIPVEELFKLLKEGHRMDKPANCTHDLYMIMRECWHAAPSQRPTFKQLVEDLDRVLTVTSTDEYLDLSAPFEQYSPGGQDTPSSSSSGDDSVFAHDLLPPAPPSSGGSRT
Experimental: FIG. 1C is a photograph of a Western blot showing immune staining of RCJ-FGFR3 cell lysates. RCJ cells were stimulated with FGF (+) with or without pre-incubation with a Fab. Lane 1—no FGF stimulation and no pre-incubation with a Fab. Lane 2—FGF stimulation, no pre-incubation with a Fab. Lane 3—FGF stimulation and pre incubation with a control (C) antibody. Lane 4—FGF stimulation and pre-incubation with an anti-FGFR3 (001) Fab.
Non-transformed rat chondrocyte cell line expressing PGFR3 in an inducible manner (RCJ-FGFR3) has been described previously (Rauchenberger R. et al. J. Biol. Chem. 2003; 278:38194-205). Cells were maintained in α-Minimum Essential Media supplemented with 15% fetal calf serum (FCS), 2 mM L-Glutamine, 100 U/ml penicillin, 100 μg/ml streptomycin, 600 μg/ml G418 (Gibco BRL, Ontario, Canada), 2 μg/ml Tetracyclin (Sigma, Ontario, Canada), and 50 μg/ml HygromycinB (Gibco BRL). […]
Cells were lysed in lysis buffer (50 mM Tris/HCl, pH 8.0, 150 mM […], 0.1 mM ZnCl2, 0.5% Nonidet NP-40, 1 mg/ml, complete protease inhibitor mix (Roche Molecular Biochemicals, Mannheim, Germany)), and clarified by centrifugation at 12,000×g for 15 minutes. The lysates were subjected to immunoprecipitation for 16 hours at 4° C. with anti-FGFR3 (C15) and analyzed by 7.5% sodium dodecyl-polyacrylamide gel electrophoresis (SDS-PAGE) and Western blot with anti-phosphotyrosine (4G10 from R&D). […]

Sequence of FGFR3 (P22607 23-806): as above

B1: PRO-001: human anti-FGFR3 Fab from HuCAL library; VH-CDR3 SEQ ID NO:1, VL-CDR3 SEQ ID NO:10; VH SEQ ID NO:19, VL SEQ ID NO:28 (antibody, V domains shown)
VH: QVQLQQSGPGLVKPSQTLSLTCAISGDSVSSNSAAWNWIRQSPGRGLEWLGRTYYRSKWYNDYAVSVKSRITINPDTSKNQFSLQLNSVTPEDTAVYYCARSYYPDFDYWGQGTLVTVSS
VL: DIELTQPPSVSVAPGQTARISCSGDALGDKYASWYQQKPGQAPVLVIYDDSDRPSGIPERFSGSNSGNTATLTISGTQAEDEADYYCQSYDGPDLWVFGGGTKLTVLGQ
[1]
  Kd: 1.5 nM
[2]; four weeks post cell injection, 400-275 μg per dose
  Tumor growth relative to control mice: 10%
[2]; nude mice
  Toxicities and weight loss over the treatment period: No major toxicities or significant weight loss
[3]
  Downstream JNK phosphorylation: reduction in downstream JNK phosphorylation
[3]; anti-phosphotyrosine immunoblot
  Ligand-stimulated autophosphorylation of FGFR3: inhibited

Source: patent US20090175866A1, “TREATMENT OF B-CELL MALIGNANCIES” (priority 2004, published 2009)
